According to article PMC3393671:

B1: GST-Irga6, Q9QZ85 E110R; R111E (protein)
chain: MGQLFSSPKSDENNDLPSSFTGYFKKFNTGRKIISQEILNLIELRMRKGNIQLTNSAISDALKEIDSSVLNVAVTGETGSGKSSFINTLRGIGNEEEGAAKTGVVEVTMREHPYKHPNIPNVVFWDLPGIGSTNFPPNTYLEKMKFYEYDFFIIISATRFKKNDIDIAKAISMMKKEFYFVRTKVDSDITNEADGKPQTFDKEKVLQDIRLNCVNTFRENGIAEPPIFLLSNKNVCHYDFPVLMDKLISDLPIYKRHNFMVSLPNITDSVIEKKRQFLKQRIWLEGFAADLVNIIPSLTFLLDSDLETLKKSMKFYRTVFGVDETSLQRLARDWEIEVDQVEAMIKSPAVFKPTDEETIQERLSRYIQEFCLANGYLLPKNSFLKEIFYLKYYFLDMVTEDAKTLLKEICL
B2: GST-Irga6, Q9QZ85 E106R (protein)
chain: MGQLFSSPKSDENNDLPSSFTGYFKKFNTGRKIISQEILNLIELRMRKGNIQLTNSAISDALKEIDSSVLNVAVTGETGSGKSSFINTLRGIGNEEEGAAKTGVVRVTMERHPYKHPNIPNVVFWDLPGIGSTNFPPNTYLEKMKFYEYDFFIIISATRFKKNDIDIAKAISMMKKEFYFVRTKVDSDITNEADGKPQTFDKEKVLQDIRLNCVNTFRENGIAEPPIFLLSNKNVCHYDFPVLMDKLISDLPIYKRHNFMVSLPNITDSVIEKKRQFLKQRIWLEGFAADLVNIIPSLTFLLDSDLETLKKSMKFYRTVFGVDETSLQRLARDWEIEVDQVEAMIKSPAVFKPTDEETIQERLSRYIQEFCLANGYLLPKNSFLKEIFYLKYYFLDMVTEDAKTLLKEICL
B3: GST-Irga6, Q9QZ85 M173W (protein)
chain: MGQLFSSPKSDENNDLPSSFTGYFKKFNTGRKIISQEILNLIELRMRKGNIQLTNSAISDALKEIDSSVLNVAVTGETGSGKSSFINTLRGIGNEEEGAAKTGVVEVTMERHPYKHPNIPNVVFWDLPGIGSTNFPPNTYLEKMKFYEYDFFIIISATRFKKNDIDIAKAISWMKKEFYFVRTKVDSDITNEADGKPQTFDKEKVLQDIRLNCVNTFRENGIAEPPIFLLSNKNVCHYDFPVLMDKLISDLPIYKRHNFMVSLPNITDSVIEKKRQFLKQRIWLEGFAADLVNIIPSLTFLLDSDLETLKKSMKFYRTVFGVDETSLQRLARDWEIEVDQVEAMIKSPAVFKPTDEETIQERLSRYIQEFCLANGYLLPKNSFLKEIFYLKYYFLDMVTEDAKTLLKEICL
B4: GST-Irga6, Q9QZ85 N212R (protein)
chain: MGQLFSSPKSDENNDLPSSFTGYFKKFNTGRKIISQEILNLIELRMRKGNIQLTNSAISDALKEIDSSVLNVAVTGETGSGKSSFINTLRGIGNEEEGAAKTGVVEVTMERHPYKHPNIPNVVFWDLPGIGSTNFPPNTYLEKMKFYEYDFFIIISATRFKKNDIDIAKAISMMKKEFYFVRTKVDSDITNEADGKPQTFDKEKVLQDIRLRCVNTFRENGIAEPPIFLLSNKNVCHYDFPVLMDKLISDLPIYKRHNFMVSLPNITDSVIEKKRQFLKQRIWLEGFAADLVNIIPSLTFLLDSDLETLKKSMKFYRTVFGVDETSLQRLARDWEIEVDQVEAMIKSPAVFKPTDEETIQERLSRYIQEFCLANGYLLPKNSFLKEIFYLKYYFLDMVTEDAKTLLKEICL
B5: GST-Irga6, Q9QZ85 E77A (protein)
chain: MGQLFSSPKSDENNDLPSSFTGYFKKFNTGRKIISQEILNLIELRMRKGNIQLTNSAISDALKEIDSSVLNVAVTGATGSGKSSFINTLRGIGNEEEGAAKTGVVEVTMERHPYKHPNIPNVVFWDLPGIGSTNFPPNTYLEKMKFYEYDFFIIISATRFKKNDIDIAKAISMMKKEFYFVRTKVDSDITNEADGKPQTFDKEKVLQDIRLNCVNTFRENGIAEPPIFLLSNKNVCHYDFPVLMDKLISDLPIYKRHNFMVSLPNITDSVIEKKRQFLKQRIWLEGFAADLVNIIPSLTFLLDSDLETLKKSMKFYRTVFGVDETSLQRLARDWEIEVDQVEAMIKSPAVFKPTDEETIQERLSRYIQEFCLANGYLLPKNSFLKEIFYLKYYFLDMVTEDAKTLLKEICL
B6: GST-Irga6, Q9QZ85 P197H (protein)
chain: MGQLFSSPKSDENNDLPSSFTGYFKKFNTGRKIISQEILNLIELRMRKGNIQLTNSAISDALKEIDSSVLNVAVTGETGSGKSSFINTLRGIGNEEEGAAKTGVVEVTMERHPYKHPNIPNVVFWDLPGIGSTNFPPNTYLEKMKFYEYDFFIIISATRFKKNDIDIAKAISMMKKEFYFVRTKVDSDITNEADGKHQTFDKEKVLQDIRLNCVNTFRENGIAEPPIFLLSNKNVCHYDFPVLMDKLISDLPIYKRHNFMVSLPNITDSVIEKKRQFLKQRIWLEGFAADLVNIIPSLTFLLDSDLETLKKSMKFYRTVFGVDETSLQRLARDWEIEVDQVEAMIKSPAVFKPTDEETIQERLSRYIQEFCLANGYLLPKNSFLKEIFYLKYYFLDMVTEDAKTLLKEICL
B7: GST-Irga6, Q9QZ85 T88R (protein)
chain: MGQLFSSPKSDENNDLPSSFTGYFKKFNTGRKIISQEILNLIELRMRKGNIQLTNSAISDALKEIDSSVLNVAVTGETGSGKSSFINRLRGIGNEEEGAAKTGVVEVTMERHPYKHPNIPNVVFWDLPGIGSTNFPPNTYLEKMKFYEYDFFIIISATRFKKNDIDIAKAISMMKKEFYFVRTKVDSDITNEADGKPQTFDKEKVLQDIRLNCVNTFRENGIAEPPIFLLSNKNVCHYDFPVLMDKLISDLPIYKRHNFMVSLPNITDSVIEKKRQFLKQRIWLEGFAADLVNIIPSLTFLLDSDLETLKKSMKFYRTVFGVDETSLQRLARDWEIEVDQVEAMIKSPAVFKPTDEETIQERLSRYIQEFCLANGYLLPKNSFLKEIFYLKYYFLDMVTEDAKTLLKEICL
B8: GST-Irga6, Q9QZ85 K162E (protein)
chain: MGQLFSSPKSDENNDLPSSFTGYFKKFNTGRKIISQEILNLIELRMRKGNIQLTNSAISDALKEIDSSVLNVAVTGETGSGKSSFINTLRGIGNEEEGAAKTGVVEVTMERHPYKHPNIPNVVFWDLPGIGSTNFPPNTYLEKMKFYEYDFFIIISATRFKENDIDIAKAISMMKKEFYFVRTKVDSDITNEADGKPQTFDKEKVLQDIRLNCVNTFRENGIAEPPIFLLSNKNVCHYDFPVLMDKLISDLPIYKRHNFMVSLPNITDSVIEKKRQFLKQRIWLEGFAADLVNIIPSLTFLLDSDLETLKKSMKFYRTVFGVDETSLQRLARDWEIEVDQVEAMIKSPAVFKPTDEETIQERLSRYIQEFCLANGYLLPKNSFLKEIFYLKYYFLDMVTEDAKTLLKEICL
B9: GST-Irga6, Q9QZ85 K161E (protein)
chain: MGQLFSSPKSDENNDLPSSFTGYFKKFNTGRKIISQEILNLIELRMRKGNIQLTNSAISDALKEIDSSVLNVAVTGETGSGKSSFINTLRGIGNEEEGAAKTGVVEVTMERHPYKHPNIPNVVFWDLPGIGSTNFPPNTYLEKMKFYEYDFFIIISATRFEKNDIDIAKAISMMKKEFYFVRTKVDSDITNEADGKPQTFDKEKVLQDIRLNCVNTFRENGIAEPPIFLLSNKNVCHYDFPVLMDKLISDLPIYKRHNFMVSLPNITDSVIEKKRQFLKQRIWLEGFAADLVNIIPSLTFLLDSDLETLKKSMKFYRTVFGVDETSLQRLARDWEIEVDQVEAMIKSPAVFKPTDEETIQERLSRYIQEFCLANGYLLPKNSFLKEIFYLKYYFLDMVTEDAKTLLKEICL
B10: GST-Irga6, Q9QZ85 S132R (protein)
chain: MGQLFSSPKSDENNDLPSSFTGYFKKFNTGRKIISQEILNLIELRMRKGNIQLTNSAISDALKEIDSSVLNVAVTGETGSGKSSFINTLRGIGNEEEGAAKTGVVEVTMERHPYKHPNIPNVVFWDLPGIGRTNFPPNTYLEKMKFYEYDFFIIISATRFKKNDIDIAKAISMMKKEFYFVRTKVDSDITNEADGKPQTFDKEKVLQDIRLNCVNTFRENGIAEPPIFLLSNKNVCHYDFPVLMDKLISDLPIYKRHNFMVSLPNITDSVIEKKRQFLKQRIWLEGFAADLVNIIPSLTFLLDSDLETLKKSMKFYRTVFGVDETSLQRLARDWEIEVDQVEAMIKSPAVFKPTDEETIQERLSRYIQEFCLANGYLLPKNSFLKEIFYLKYYFLDMVTEDAKTLLKEICL
B11: GST-Irga6, Q9QZ85 K145E (protein)
chain: MGQLFSSPKSDENNDLPSSFTGYFKKFNTGRKIISQEILNLIELRMRKGNIQLTNSAISDALKEIDSSVLNVAVTGETGSGKSSFINTLRGIGNEEEGAAKTGVVEVTMERHPYKHPNIPNVVFWDLPGIGSTNFPPNTYLEKMEFYEYDFFIIISATRFKKNDIDIAKAISMMKKEFYFVRTKVDSDITNEADGKPQTFDKEKVLQDIRLNCVNTFRENGIAEPPIFLLSNKNVCHYDFPVLMDKLISDLPIYKRHNFMVSLPNITDSVIEKKRQFLKQRIWLEGFAADLVNIIPSLTFLLDSDLETLKKSMKFYRTVFGVDETSLQRLARDWEIEVDQVEAMIKSPAVFKPTDEETIQERLSRYIQEFCLANGYLLPKNSFLKEIFYLKYYFLDMVTEDAKTLLKEICL
B12: GST-Irga6, Q9QZ85 I209R (protein)
chain: MGQLFSSPKSDENNDLPSSFTGYFKKFNTGRKIISQEILNLIELRMRKGNIQLTNSAISDALKEIDSSVLNVAVTGETGSGKSSFINTLRGIGNEEEGAAKTGVVEVTMERHPYKHPNIPNVVFWDLPGIGSTNFPPNTYLEKMKFYEYDFFIIISATRFKKNDIDIAKAISMMKKEFYFVRTKVDSDITNEADGKPQTFDKEKVLQDRRLNCVNTFRENGIAEPPIFLLSNKNVCHYDFPVLMDKLISDLPIYKRHNFMVSLPNITDSVIEKKRQFLKQRIWLEGFAADLVNIIPSLTFLLDSDLETLKKSMKFYRTVFGVDETSLQRLARDWEIEVDQVEAMIKSPAVFKPTDEETIQERLSRYIQEFCLANGYLLPKNSFLKEIFYLKYYFLDMVTEDAKTLLKEICL
B13: GST-Irga6, Q9QZ85 R159E (protein)
chain: MGQLFSSPKSDENNDLPSSFTGYFKKFNTGRKIISQEILNLIELRMRKGNIQLTNSAISDALKEIDSSVLNVAVTGETGSGKSSFINTLRGIGNEEEGAAKTGVVEVTMERHPYKHPNIPNVVFWDLPGIGSTNFPPNTYLEKMKFYEYDFFIIISATEFKKNDIDIAKAISMMKKEFYFVRTKVDSDITNEADGKPQTFDKEKVLQDIRLNCVNTFRENGIAEPPIFLLSNKNVCHYDFPVLMDKLISDLPIYKRHNFMVSLPNITDSVIEKKRQFLKQRIWLEGFAADLVNIIPSLTFLLDSDLETLKKSMKFYRTVFGVDETSLQRLARDWEIEVDQVEAMIKSPAVFKPTDEETIQERLSRYIQEFCLANGYLLPKNSFLKEIFYLKYYFLDMVTEDAKTLLKEICL

target: ROP5 of T. gondii strain RH-YFP (isoforms not told apart), F2YGR7; assay: pull-down (quantitated Western blot); details: chain shown with the change; 25 µg protein/100 µl 1:1 bead suspension; RH-YFP strain T. gondii lysates; 3E2 antibody (anti-ROP5); GST signal subtracted; parent: est. 100; read off a plot
Sequence (F2YGR7 25-549): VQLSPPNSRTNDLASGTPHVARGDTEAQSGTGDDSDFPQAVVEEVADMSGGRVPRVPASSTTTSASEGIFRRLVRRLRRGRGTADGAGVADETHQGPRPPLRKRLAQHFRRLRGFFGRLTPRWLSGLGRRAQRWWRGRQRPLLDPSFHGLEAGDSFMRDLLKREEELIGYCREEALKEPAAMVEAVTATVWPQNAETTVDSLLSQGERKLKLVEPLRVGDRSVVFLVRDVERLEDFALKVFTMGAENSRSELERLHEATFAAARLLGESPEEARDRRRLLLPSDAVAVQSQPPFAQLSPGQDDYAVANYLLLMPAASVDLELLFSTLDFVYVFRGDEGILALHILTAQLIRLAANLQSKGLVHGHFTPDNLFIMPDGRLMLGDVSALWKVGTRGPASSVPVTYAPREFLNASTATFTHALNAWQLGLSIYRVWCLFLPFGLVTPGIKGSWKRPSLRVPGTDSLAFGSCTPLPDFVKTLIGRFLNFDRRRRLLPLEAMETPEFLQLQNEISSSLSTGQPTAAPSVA

| Binder | percent of parent (% of wild-type intensity) |
| --- | --- |
| B1 | 17 |
| B2 | 110 |
| B3 | 25 |
| B4 | 2.7 |
| B5 | 34 |
| B6 | 2.8 |
| B7 | 51 |
| B8 | 3.5 |
| B9 | 1 |
| B10 | 45 |
| B11 | 100 |
| B12 | 5 |
| B13 | 5.5 |
